Experimental data taken from the RNAGym collection of RNA variant scans (doi:10.1093/molbev/msab373).

B1: Azoarcus group I ribozyme (parent)
chain: GUGCCUUGCGCCGGGAAACCACGCAAGGGAUGGUGUCAAAUUCGGCGAAACCUAAGCGCCCGCCCGGGCGUAUGGCAACGCCGAGCCAAGCUUCGGCGCCUGCGCCGAUGAAGGUGUAGAGACUAGACGGCACCCACCUAAGGCAAACGCUAUGGUGAAGGCAUAGUCCAGGGAGUGGCGAAAGUCACACAAACCGG

Variants of: B1
Assay: reverse-splicing fitness (ratio to wild type); higher = more active; in vitro selection; Mg2+ level not given
Summary of the method: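 An in vitro group I ribozyme library with randomized positions was T7-transcribed and gel-purified. In triplicate, 10 pmol RNA in EPPS pH 7.5 was reacted with 50 pmoles of a 30-nt RNA substrate for 1 h at 37 °C across several added MgCl2 levels (1–48 mM), then stopped with EDTA. Products were reverse transcribed from a substrate-complementary primer, PCR-amplified and sequenced (HiSeq 4000). Fitness is a variant's read proportion after selection over that before, normalised to wild type.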

First: C82A A111U A120G A145G C150A C169U
Second: C82A A111U A120G A145G C150A C169A
The reverse-splicing fitness of the first is lower: 0.00929 for the first, 0.0112 for the second.

Compared with C82A A111U A120G A145G C150A C169G, C82A A111U A120G A145C U176C is higher in reverse-splicing fitness: 0.00912 for the first, 0.012 for the second.

Going from C82A A111U A120G A145C U176A to C82A A111U A120G A145C U176G, the reverse-splicing fitness falls from 0.0112 to 0.00543.

Compared with C82A A111U A120C A145U U176C, C82A A111U A120C A145U U176G is lower in reverse-splicing fitness: 0.0276 for the first, 0.00733 for the second.

First: C82A A111U A120C A145U U176A
Second: C82A A111U A120G C169G
The reverse-splicing fitness of the first is higher: 0.0168 for the first, 0.0106 for the second.

First: C82A A111U A120G C169A
Second: C82A A111U A120G C169U
The reverse-splicing fitness of the first is higher: 0.0102 for the first, 0.00987 for the second.

Going from C82A A111U A120G A145U U176G to C82A A111U A120G A145U U176C, the reverse-splicing fitness rises from 0.00522 to 0.0145.

First: C82A A111U A120G A145U U176A
Second: C82A A111U A120G A145G C150G C169A U176G
The reverse-splicing fitness of the first is higher: 0.0132 for the first, 0.00821 for the second.

Going from C82A A111U A120G A145G C150G C169A U176C to C82A A111U A120G A145G C150G C169A U176A, the reverse-splicing fitness falls from 0.0133 to 0.0132.

Compared with C82A A111U A120G A145U C150U C169G U176G, C82A A111U A120G A145U C150U C169G U176A is higher in reverse-splicing fitness: 0.00527 for the first, 0.0153 for the second.

First: C82A A111U A120G A145U C150U C169G U176C
Second: C82A A111U A120G A145U C150G C169G
The reverse-splicing fitness of the first is higher: 0.0147 for the first, 0.00685 for the second.

Compared with C82A A111U A120G A145U C150G C169A, C82A A111U A120G A145U C150G C169U is lower in reverse-splicing fitness: 0.00884 for the first, 0.00845 for the second.

Compared with C82A A111U A120G A145C C169A, C82A A111U A120G A145C C169G is higher in reverse-splicing fitness: 0.0074 for the first, 0.0105 for the second.

First: C82A A111U A120G A145C C169U
Second: C82A A111U A120G A145C C150G C169A U176G
The reverse-splicing fitness of the first is higher: 0.00838 for the first, 0.00554 for the second.

Compared with C82A A111U A120G A145C C150G C169A U176A, C82A A111U A120G A145C C150G C169A U176C is lower in reverse-splicing fitness: 0.00838 for the first, 0.00639 for the second.

First: C82A A111U A120G A145G C150G C169U
Second: C82A A111U A120G A145G C150G C169G
The reverse-splicing fitness of the first is higher: 0.00901 for the first, 0.00797 for the second.

Compared with C82A A111U A120G A145G C150G C169A, C82A A111U A120G A145G C150A U176A is higher in reverse-splicing fitness: 0.0092 for the first, 0.0111 for the second.

First: C82A A111U A120G A145G C150A U176G
Second: C82A A111U A120G A145G C150A U176C
The reverse-splicing fitness of the first is lower: 0.00816 for the first, 0.0209 for the second.

Compared with C82A A111U A120C C150A C169G U176A, C82A A111U A120C C150A C169G U176G is lower in reverse-splicing fitness: 0.0199 for the first, 0.00775 for the second.

Compared with C82A A111U A120C C150A C169G U176C, C82A A111U A120G A145C C150G C169G is lower in reverse-splicing fitness: 0.0312 for the first, 0.00674 for the second.

Going from C82A A111U A120G A145C C150G C169A to C82A A111U A120G A145C C150G C169U, the reverse-splicing fitness falls from 0.00846 to 0.00766.

Compared with C82A A111U A120G A145C C150A C169G U176A, C82A A111U A120G A145C C150A C169G U176G is lower in reverse-splicing fitness: 0.0253 for the first, 0.00564 for the second.

First: C82A A111U A120G A145C C150A C169G U176C
Second: C82A A111U A120G A145U C150A C169G U176G
The reverse-splicing fitness of the first is higher: 0.0151 for the first, 0.00492 for the second.

First: C82A A111U A120G A145U C150A C169G U176A
Second: C82A A111U A120G A145U C150A C169G U176C
The reverse-splicing fitness of the first is lower: 0.0146 for the first, 0.0161 for the second.

First: C82A A111U A120C C150A C169U U176C
Second: C82A A111U A120C C150A C169U U176A
The reverse-splicing fitness of the first is lower: 0.0167 for the first, 0.0186 for the second.

Going from C82A A111U A120C C150A C169U U176G to C82A A111U A120G A145C C150U C169A, the reverse-splicing fitness falls from 0.00905 to 0.00869.

Compared with C82A A111U A120G A145C C150U C169G, C82A A111U A120G A145C C150U C169U is lower in reverse-splicing fitness: 0.00823 for the first, 0.00725 for the second.

Compared with C82A A111U A120G A145G C169U U176G, C82A A111U A120G A145G C169U U176A is higher in reverse-splicing fitness: 0.00504 for the first, 0.0211 for the second.

Going from C82A A111U A120G A145G C169U U176C to C82A A111U A120G C150U C169G, the reverse-splicing fitness falls from 0.0167 to 0.0105.

First: C82A A111U A120G C150U C169U
Second: C82A A111U A120G C150U C169A
The reverse-splicing fitness of the first is lower: 0.00932 for the first, 0.0106 for the second.

Compared with C82A A111U A120C C150G C169U U176A, C82A A111U A120C C150G C169U U176C is higher in reverse-splicing fitness: 0.00757 for the first, 0.011 for the second.

First: C82A A111U A120C C150G C169U U176G
Second: C82A A111U A120G A145C C150U C169A U176C
The reverse-splicing fitness of the first is lower: 0.0062 for the first, 0.00677 for the second.

First: C82A A111U A120G A145C C150U C169A U176G
Second: C82A A111U A120G A145C C150U C169A U176A
The reverse-splicing fitness of the first is lower: 0.00508 for the first, 0.0127 for the second.

First: C82A A111U A120G A145U C150G C169U U176A
Second: C82A A111U A120G A145U C150G C169U U176G
The reverse-splicing fitness of the first is higher: 0.0104 for the first, 0.00545 for the second.

Going from C82A A111U A120G A145U C150G C169U U176C to C82A A111U A120G A145G C150G C169U U176G, the reverse-splicing fitness falls from 0.0125 to 0.00707.

Going from C82A A111U A120G A145G C150G C169U U176C to C82A A111U A120G A145G C150G C169U U176A, the reverse-splicing fitness falls from 0.013 to 0.0121.

First: C82A A111U A120G C150U C169U U176A
Second: C82A A111U A120G C150U C169U U176C
The reverse-splicing fitness of the first is higher: 0.0197 for the first, 0.0177 for the second.

Going from C82A A111U A120G C150U C169U U176G to C82A A111U A120G A145U C150U C169G, the reverse-splicing fitness rises from 0.00708 to 0.0104.

Compared with C82A A111U A120G A145U C150U C169A, C82A A111U A120G A145U C150U C169U is lower in reverse-splicing fitness: 0.0101 for the first, 0.00891 for the second.

Going from C82A A111U A120G C150U to C82A A111U A120G C150A, the reverse-splicing fitness falls from 0.0133 to 0.0106.

Compared with C82A A111U A120G C150G, C82A A111U A120G A145C C150U U176G is lower in reverse-splicing fitness: 0.00697 for the first, 0.00589 for the second.

C82A A111U A120G A145C C150U U176C gave a reverse-splicing fitness of 0.0114.
